Measured values reported in publication PMC4414194.

Legend:
[1] = target: HDAC4 (UniProt P56524); test: anti-GFP co-IP, anti-Flag blot; conditions: reference: GATA1 wild type; sites S161,S187
[2] = target: HDAC3 (UniProt O15379); test: anti-GFP co-IP, anti-Flag blot; conditions: reference: GATA1 wild type; sites S161,S187

GATA1 (from UniProt P15976) GATA1 S161A S187A
binding against the reference [1]: weaker
binding against the reference [2]: weaker
